This test has as its target exportin 1 (XPO1, CRM1) (UniProt O14980). Put plainly: anti-HA. Particulars: reference: wild type; sites S182.

Data on 1 substance can be found in paper PMC12002136.

Take YTHDF1 (from UniProt Q9BYJ9) S182A: the “binding against the reference” value was “stronger”.
